Assay results: publication PMC2172719 (The Journal of Cell Biology, 2003)

T1: His-Ubc13 (yeast, UniProt P52490 1-153)
T1 sequence: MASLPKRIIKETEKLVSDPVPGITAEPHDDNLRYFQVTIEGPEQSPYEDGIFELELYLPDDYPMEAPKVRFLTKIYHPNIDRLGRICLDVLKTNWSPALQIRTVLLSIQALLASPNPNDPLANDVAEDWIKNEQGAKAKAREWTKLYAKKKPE


How the values were obtained:
His-Ubc13 = molecular target: T1, His-Ubc13; experiment: SEC
SEC = molecular target: the molecule itself; experiment: SEC

| Binder | binding result (His-Ubc13) | stoichiometry N (SEC) |
| --- | --- | --- |
| His-Mms2 (natural protein) MSKVPRNFRLLEELEKGEKGFGPESCSYGLADSDDITMTKWNGTILGPPHSNHENRIYSLSIDCGPNYPDSPPKVTFISKINLPCVNPTTGEVQTDFHTLRDWKRAYTMETLLLDLRKEMATPANKKLRQPKEGETF | binds |  |
| His-tagged p97 ΔN (domain or fragment) not shown |  | 6 |
